Each block holds one binder with its values, some of them ahead of it.
Target: T1, Corticotropin Releasing Factor receptor 2 (CRF2) (human (endogenous in HT-29)) (UniProt Q13324)
T1 sequence: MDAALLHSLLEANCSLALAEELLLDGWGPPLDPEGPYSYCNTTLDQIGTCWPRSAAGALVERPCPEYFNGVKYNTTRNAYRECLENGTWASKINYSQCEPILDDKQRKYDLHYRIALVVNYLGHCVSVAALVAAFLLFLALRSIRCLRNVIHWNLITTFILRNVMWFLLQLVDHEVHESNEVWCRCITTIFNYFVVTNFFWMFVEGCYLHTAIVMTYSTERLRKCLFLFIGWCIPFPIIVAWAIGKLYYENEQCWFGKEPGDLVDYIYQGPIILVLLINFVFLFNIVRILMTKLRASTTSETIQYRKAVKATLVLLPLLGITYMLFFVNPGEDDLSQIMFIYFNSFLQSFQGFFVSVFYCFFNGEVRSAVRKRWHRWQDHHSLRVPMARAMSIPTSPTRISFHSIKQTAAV

cAMP production by HT-29 cells treated with 1 µM CRF (ELISA kit); completely reversed by 1 µM astressin2b (A2b) (pM of cAMP/10^5 cells): 0.5
B1: Corticotropin releasing factor (CRF) (peptide)
peptide: SEEPPISLDLTFHLLREVLEMARAEQLAQQAHSNRKLMEIIGK

cAMP production by HT-29 cells treated with 1 µM Ucn2 (ELISA kit); completely reversed by 1 µM astressin2b (A2b) (pM of cAMP/10^5 cells): 1
B2: Urocortin 2 (Ucn2) (peptide)
peptide: IVLSLDVPIGLLQILLEQARARAAREQATTNARILARVGHC

cAMP production by HT-29 cells treated with 1 µM Ucn3 (ELISA kit); completely reversed by 1 µM astressin2b (A2b) (pM of cAMP/10^5 cells): 2.4
B3: Urocortin 3 (Ucn3) (peptide)
peptide: FTLSLDVPTNIMNLLFNIAKAKNLRAQAAANAHLMAQI
